The data set in a line: label from the status in PepcDB records.
With “MLAELFAVMAPVLFGAGVGYVWVRLGHAYPTEFVSRIVFNIGSPCLILATLAHTRVDLHSFGRMALASALICVCMAALGWAAARLGRQEWQVLVPAYSFPNVGNMGLPVCLYAFGEAGMTLAVAFYLIMSIGNFSLGVFWMSGERSWRSLLGNPILLSVLLALLLMGLDLQLPRWMANTVDLMAGLTIPLMLITLGVSLASIRPRQLGNGFFYGGLRLLLGALVGWSVALALQLPPLAQGVLVVQSSMPVAVFNYLYALRGNRSPDQVASLVLCSTLLSFAFIPLLLTWWLPALR”, the protein production entry is on record as “failed”.

Regarding “MLCACSGEQFRFEDQPGSPESLATRDFSASGLSSRNGGGDWDSKLEDIQVDEAESTLKEALSLNYEEARALLGRLEYQRGNFDAALQVFKGIDIKVLTPRIIKAIVEKTLPCKPRSKAVIVPPTTMSMHSVSLLLEAILLKARSLEELGSYKEAAEECKIILDVVENALPSGMPDGISGFAKLQDIFQKALELLPLLWKKAGNHHETIASYRRALSRPWNLDPQRLAVTQKSLALVLLYGSVEACPKDNIEEAIVLLMLLVKKMVVGDIQWDPELMDHLTYALSMTGQFEVLANYLEQTLPGVYTRGERWYLLSLCYSAAGIDKAAINLLKMALGPSESRQIPHIPLLLFGAKLCSKDPKHSRDGINFAHRLLDLGNSQSEHLLSQAHKFLGVCYGNAARSSKLDSERVFLQKKSLFSLNEAAKRGKADPELDVIFNLSVENAVQRNVQAALDGAVEYSSMVGGVSTKGWKHLAIVLSAEKRLKDAESILDFTMEEAGDIEKIELLRLKAVLQMAQEQPKKAMKTCSSLLGLIRAQEKSEQSESLLQKFETEAWQDLASVYGKLGSWSDAETCLEKARSMCYYSPRGWNETGLCLEAKSLHEEALISFFLSLSIEPDHVPSIVSIAEVMMKSGDESLPTAKSFLMNALRLDPRNHDAWMKLGHVAKKQGLSQQAAEFYQAAYELELSAPVQSFI”, the protein production entry was “failed”.

“MLCLHAPSRCEAAPAFPHTYSHYSEQEQLTALLADFGRTQGLATSFSPGVTGTVSGRFEDVAPEKFLQGMKAAFGVSWYRLGPTLHFYHEAETTRIFISPRVMSAESLYRMLRQSSVLSPQLPAELMPGGAMVVVSGPPAYLDQIQAAVTAFEEAQTGNFGMKVFPLKYAWAEDITVNSMDKTVTLPGVASILRAMVSGSPSSATRVTQETATVDKLSGTGLISQGRQQKESGQSNQAQRGGQASQQDSGGAQDGQQVSIMADPRVNAVIVHDAVYRMPYYESVIGDLDRPVELVEIHAAIVDIDTNFKRDLGVTYQATVGKDQRWAGGADVSTGTDKFTPLPVPGVPQGSGLTLSTIYTMGSDYFLARINALEKNGEARMLGRPSVLTVDNVQATLENTSTYYIQVQGYQAVDLFKVEAGTVLRVTPHIINNDDGTDAIKLVVSVQDDQNNQTTPTSTSTTQAIPPIKQTKINTQAIIGAGQSLLIGGYYYEQKATSADGVPILMNIPVLGNLFKTQSKENKRMERLILITPKVVRLDNLPGTPPRVDDPAFHRTATQSDYAERTPTPPPSRRSGCSRAPDNAPEAASGAAGGTGGTGVTANTEGGTTPQAATSPVPAYGVAP”: the protein production entry is on record as “failed”.

As to “MLDASPATARSPLEKRRPNVCREEQLTLVRLSRPCAQAFIDTIQFWKQGCSGPRWCVGYERRIRYYIIYRHVYATEHQTVFRCCPGWIQWDDEPGCFSSLSSLGTHFSGRECSYQDTRQCLCSQGFHGPHCQYDINECAVDNGGCRDRCCNTIGSYYCRCQAGQKLEEDGRGCEDVDECAVVNGGCQQRCINTLGTFHCECDTGYRRHADERTCIRIELEIVNICEKNNGGCSHHCEPAIGGAHCSCNHGHQLDTDGKTCIALDEQLEEEEEEIDILRFPGRLAQNPPQPFPYLDPSLTASYEDEDNDDADSEAEGEVQGLTALYRVVCLDGTFGLDCSLSCEDCMNGGRCQEGKSGCLCPAEWTGLICNESSVLRTGEDQQAPAGCLKGFFGKNCKRKCHCANNVHCHRVYGACMCDLGRYGRFCHLSCPRGAYGASCSLECQCVEENTLECSAKNGSCTCKSGYQGNRCQEGTIR”, the protein production result is on record as “failed”.

For “MLDISFGEFVLIGVVALVVLGPERLPTVARTVGALVARAQRFVANVKADMQQQANLQGLDSLRQDLQDAAHSFRGQLEAEVQQVRDAIDQNAADARALAEQAAEPFHEAERTIHGGLAPDAEAEAREAETHPAEPAPAAQADVPPRDENQLDLFDDLPPHRPPASQPSASQARE”, the protein production result is recorded as “failed”.

In the case of “MLDKLTVWIENHLAGPMAKIANQRHLRAVRDGIIATLPLIIVGSFFLIIAFPPLPESWGITQFLTSNAATILLPYRMTMYIMALYATFGIGASLAKSYNLDQVSGGILATIAFLLTLVPVAIPEEASKAAGVSGFVLPMANLGGAGMFVGIVTSIIAVEIYRVTDKSKFKITMPDNVPPAVARSFESLTPTLIVMLLIGSITYYLGFDWHTFVGNLVGPLVQAADSLLSVLLLVFLTTFFWFFGIHGASIVGSLARPLWLQLLEENTTAKAAGEALPRIAAEPFYQWFIWIGGAGATIGLAILLAFRAKSEYGSKLGKAILAPSIFNINEPVIFGVPIVLNPILMIPFIFAPMVLATIAWFATKLGLVSEVVFTAPWTLPGPIGAFMATGGDWRAAVLNIVLILVAILIYYPFFVAYDKNELAKEQGKQIEE”, the protein production result was “failed”.

In the case of “MLDNLQLTDILATVAVLVSITFLIYFAGKTLITANSFQKGVSLYQQKDYPGAEAAFRKVIAINSTNDVVRLFLGDVLREQGKVAEATELFQEVINRSPKNPQGYLRLATILMQQEKQAEAKTNLQKAQELLQKQRQPETAKRVAKLLEQMNTKTI”, the protein production result is “failed”.

With “MLDTYGRKYVNPIIDLGANTLLKLRLTPNGVSIIALIIGVLSSVFLYFDKLILSVVFLWISGYLDSVDGAMARKKNLTSPFGTLLDITFDRIVELSIIFVLALKFQNSRLYLLILTMMILISMTIFLTVGALAQNNGMKSFRYQAGLAERSEGFICFSLMILLSSIKLNLVTNIFSLIIFITIIQRALEAKRLLK”, the protein production entry is “failed”.

As for “MLEAAQGAPASSGRRTRRPGLSEEVLRAYAYACAFCGYDGMLGRNPVGLEAAHIRWHSQDGPDTLANALALCALHHILFGLGVLGLSPGLRIQVSPLYVARSHAGHAVGILHRRPLAPPRPGHPSPGPEHIHWHHQQVFKHAPTPVAR”, the protein production entry is “failed”.

“MLEACTKCGTCAEACTMYLGSGRKKIYSPVYRSDMLRKIYKKHFTLTGKLFGPLIGAKDPTEDDINALAESAYRCTVCRRCALACPFGLDNGLITRETRKIFADLGILEHHHHHH”: the protein production entry is reported as “failed”.

As to “MLEGIYLALDKMFGPMLRNTHPMWVVTVSGVILGAFFVLLNYFLVDQEKMKRLQKMAKELQEEFKKARESGDEKKLRKLQQKQLELLRLQNELMKDAFLKPMLITWPIIIIFWGWLKRWYFETAIVKYPFNFFLFDIFHKMYHSALKPDELGYFGWYFLTSYVVGTILRKVLDMA”, the protein production result is on record as “failed”.

As for “MLEGQLEAGEPKEGTHPEDPCPGAGAAMEKTPAAAEVPREDSNAGEMPSLQQQITSLHQELGRQQSLWADIHRKLQSHMDALRKQNRELREELRGLQRQQWEAGKKPAASPHAGRESHTLALEPAFGKISPLSADEETTPKYAGRKSQSATLLGQRWSSNHLAPPKVTLRAYRL”, the protein production result is “failed”.

As to “MLEGVARPSLLRRLSCAPGMPAPVRRLAERIEGSHLATRLAEGAFWSFAGSALSRAFALAASVVTARFLGKAQYGELGVLLSTLLTFQAFASLGLGMTATKYVSELRTKDPERAGRILGMSAVLSAATGVLAAALLWAFAPWLASSTIGAPHLTEPLRIAGLGLVFTTMGGAQTGALAGFEAFRTQTQLNVWLGLLGVPIAVVGVWRWGLQGAVWATVVTAALQWALTHVAVRVHARRDRVPVSPRGWWREQRILWTFSLPALAQGVMVGPVSWAAAAILVNQPGGYPEMGAFSAANQWYAAVLFLPNALCGPVLPVLSERVGRGDGPGVRAVLRAAVAMNAAAVIPIVAAGCLASPWLVRIYGPQFADAWPTFAVVLITAGIVAITNPVGYVLAASERLWLGFLMNSGWAAAFLVATVLLVGWGSLGLATGRLLAYALHFGWTLWFAMRFVRAGAARGT”, the protein production entry was “failed”.

Take “MLEIMLMVCIGALAAVMANLGIAVFNDGIRPIVPENLEGRMTRKELGVTAFAMSFGLVIGFGIPISIAGSIILIHSILLGSDIIGLALDRGKVKTTIAAIIGGLYGAGIYMGLQVVVDLFTMLPLNFVDAFNKVGDPVVVSFMVFPAIAIALQFGVKKGIIAFAIAAFARQLIVFTNGAELIKIGSTPVVLSPEGIALVVGMFLLIFFAMREKSEETNLSTLATLFTDRVARIKKHRWILMLSGGLVAAATNLLLIAGDPISLNLLAEGKMSEGGIAALAKAIGFVPLIASTAIATGVYGPIGFTFVFAAGIFAPNLGIALLIGALIIFLEIQLLTKLATFLDRYPGIRASGENIRTAMSRVLEVALLIGGANAADAIVPGFGFFAIAGFYLINEIAGRPIVRMAIGPVGAIIVGIVGNLLVLLGLYTP”: the protein production result is “failed”.

For “MLELFLKEEWTTEAKEILRPFGQKKLIGIQMGASNRSRQWFVERWIELAKRIIERDEEVVIVFVGSKNELEEISLVAQALPQDRVFISAGRLSLGAAAALIGELGLLFTPDTGPLHIAVALRVKTISLFAVANPKNSLPDYDQSLHRYIKVDRCCEPCVGKRCAYQKCMEAIGVDEVYEEYKKLQELEHHHHHH”, the protein production result is given as “not failed”.

With “MLELKNENLTVQFSELGGQIISIKDKDGIEYLWQGEPTYWSGQAPVLFPICGSLRNDWAIYEPAERPTFTGTIPRHGLVRKMLFKNVKSTENSLEFSISSNEETVKNYPFEFELSINYSLFGKTIRIEYRVKNLEGHRKLPYFIGGHPGFNCPLLDGESYEDYYLEFEKVESCTVPRSFPETGLLDLRDRRPFLENQKTLDLSYKLFEYDAITLDQLASRKVTLKSKNHQKKLSIAFDDFPYLVIWSTTNQSPFIALEPWSGLSTSLEESDIFNAKRNISYVAPKEVDTKYFDIIIE”, the protein production entry is given as “failed”.

On to “MLELNAKTTALVVIDLQEGILPFAGGPHTADEVVNRAGKLAAKFRASGQPVFLVRVGWSADYAEALKQPVDAPSPAKVLPENWWQHPAALGATDSDIEIIKRQWGAFYGTDLELQLRRRGIDTIVLCGISTNIGVESTARNAWELGFNLVIAEDACSAASAEQHNNSINHIYPRIARVRSVEEILNAL”, for which the protein production result is reported as “not failed”.

Take “MLEMIYFAVVAIVGFFFYRKMNGKPMFGFKKKGKSQGGVEKRTAEKNGKKNKKNTPATEEIDEDNVDFFSAFVEDIKEVENHMIRYHDDTFVLIAEAHPVNYYLLSNAEQEAIDIKIESWLTTLEFNTKVYIQSKFVDLTDPVRKMTETMKGAKDLTPETVLYGQEVIDNLEYWQRSQPRYEQKRYLIYPYKVDISTITADTEEELEEKIVDKAFNELYRRYNASRNLLSKAKISVEMLTKDKLIELLYVAFNRRKAVKARFQDLIENENFSLYSTGETNERKLELMKKVLAEEKAEKSNNGVA”: the protein production entry is “failed”.

For “MLEQGTISIHTENIFPIIKKSLYSDHQIFLRELVSNAVDAIQKLKMVSRAGEYAGVVDEPEIQLAIDKDKKTLSITDNGIGMTAEEVKKYINQVAFSSAEEFIHKYQGKSDQPIIGHFGLGFYSSFMVAQKVEIDTLSYQEGAQAVHWSCDGSPEFTLEESSRTTIGTTITLTLLPDEEEYLESARVKNLVKTYCDFMPVPIKLDGEVLNRQKAPWRESPSNLTKEDYLEFYRYLYPFQEEPLLWVHLNTDYPFIINGILYFPKMRPDVDVTKGQIKLFCNQVFVSDNCEEIIPQFLVPMRGVIDSTDIPLNVSRSALQGDRTVRKIGDYIAKKVGDRLKELYRDDREQYISAWKDLSTFVKFGVLNDEKFKKQVEDIIIFRSTVKWEQPAETPAVEVQSQEGDVWQDITPSPDSPTPGLPYTTLKEYLERNKERHENRVFYSTDEATQATYIELHKNQGLEVLFLDSFIDTHFINFLEQEYQDVKFTRVDSDLDNTLLEQDKAGEIVDPTTNKTKSEIIKELFEKSLNKPKVNIRTEALKSDDPQGTPPAIVLLPEFLRRMREMTAMMQQQNADFPEDHILLVNTAHPLIQNLVNLNQGAIIQGDGESTTNPLVNLICQHVYDLALMSQKGFDAEGMKSFVERSNDVLTKLTQQAKN”, the protein production entry was “failed”.

The values above are taken from a protein production outcome set (Wang et al. 2014).
